Laboratory results as given in PMC7788105 (iScience, 2020).

Target: T1, human PD-1 (programmed cell death receptor 1) (human, UniProt Q15116 25-170, 15N-labeled in the AIDA-NMR assay; covalently labeled with a fluorophore in the MST assay)
T1 construct: Programmed cell death receptor 1 (PD-1, CD279), human; In the cell-based ICB assays hPD-1 stands on Jurkat effector cells; also called hPD-1; CD279
Test: MST; hPD-1 covalently labeled with a fluorophore, incubated with increasing concentrations of unlabeled hPD-L1 or mPD-L1; two independent dilution series, KD model
Settings: both partners purified

T1 sequence (Q15116 25-170): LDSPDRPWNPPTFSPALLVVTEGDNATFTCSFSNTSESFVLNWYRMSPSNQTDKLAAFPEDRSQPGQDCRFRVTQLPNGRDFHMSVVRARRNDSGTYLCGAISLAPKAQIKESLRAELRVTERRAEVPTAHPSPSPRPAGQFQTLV

B1: mouse PD-L1 (ligand)
chain: FTITAPKDLYVVEYGSNVTMECRFPVERELDLLALVVYWEKEDEQVIQFVAGEEDLKPQHSNFRGRASLPKDQLLKGNAALQITDVKLQDAGVYCCIISYGGADYKRITLKVNAPY
modifications: fluorescently labeled in the MST assay with antibodies
notes: PD-L1, mouse; In the h/mICB assay mPD-L1 is endogenous on IFN-gamma-treated B16-F10/TCRAct cells; also called mPD-L1
Kd: 3.2 ± 0.2 µM
